Source: publication PMC9482650, “Quantitative fragmentomics allow affinity mapping of interactomes” (Nature Communications, 2022)

Columns and labels:
Test in all cases: holdup assay
Set-up in all cases: key: below the threshold = too weak to quantify, mostly under pKd 3.1 to 4
Settings in all cases: plain residues with an end cap or a label only (N-terminal biotin on a linker: ado-ado)
APBA2_2, Q99767 = target: T1, APBA2_2, Q99767
T1 sequence (Q99767 654-744, limits assumed, looked up): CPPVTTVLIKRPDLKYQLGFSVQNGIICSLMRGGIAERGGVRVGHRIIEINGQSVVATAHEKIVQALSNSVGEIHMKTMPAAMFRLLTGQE

CASK, O14936 = target: CASK, O14936
Sequence of CASK, O14936 (O14936 487-570): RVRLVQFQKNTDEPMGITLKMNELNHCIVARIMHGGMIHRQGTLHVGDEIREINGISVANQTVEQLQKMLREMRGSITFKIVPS

DLG4_2, P78352 = target: DLG4_2, P78352
Sequence of DLG4_2, P78352 (P78352 155-259): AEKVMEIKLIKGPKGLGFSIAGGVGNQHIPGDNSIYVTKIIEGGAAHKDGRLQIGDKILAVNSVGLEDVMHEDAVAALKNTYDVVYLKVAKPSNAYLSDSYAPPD

DLG4_3, P78352 = target: DLG4_3, P78352
Sequence of DLG4_3, P78352 (P78352 306-403): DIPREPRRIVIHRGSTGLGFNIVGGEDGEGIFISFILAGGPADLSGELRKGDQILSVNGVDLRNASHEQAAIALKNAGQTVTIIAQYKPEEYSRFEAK

FRMPD3, Q5JV73 = target: FRMPD3, Q5JV73
Sequence of FRMPD3, Q5JV73 (Q5JV73 12-100): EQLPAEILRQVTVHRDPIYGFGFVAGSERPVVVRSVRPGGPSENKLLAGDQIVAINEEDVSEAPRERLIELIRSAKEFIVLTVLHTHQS

FRMPD4, Q14CM0 = target: FRMPD4, Q14CM0
Sequence of FRMPD4, Q14CM0 (Q14CM0 67-160): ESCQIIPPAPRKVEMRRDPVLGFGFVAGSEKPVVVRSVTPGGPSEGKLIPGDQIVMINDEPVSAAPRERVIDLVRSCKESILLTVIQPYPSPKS

GORASP1, Q9BQQ3 = target: GORASP1, Q9BQQ3
Sequence of GORASP1, Q9BQQ3 (Q9BQQ3 1-208): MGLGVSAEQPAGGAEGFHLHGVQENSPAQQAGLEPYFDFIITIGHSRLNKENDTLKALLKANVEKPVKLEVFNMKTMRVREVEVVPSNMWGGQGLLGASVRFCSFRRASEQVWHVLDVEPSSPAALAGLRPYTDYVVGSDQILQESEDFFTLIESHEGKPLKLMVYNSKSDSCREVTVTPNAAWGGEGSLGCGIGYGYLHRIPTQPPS

GRIP1_3, Q9Y3R0 = target: T2, GRIP1_3, Q9Y3R0
T2 sequence (Q9Y3R0 247-346, limits assumed, looked up): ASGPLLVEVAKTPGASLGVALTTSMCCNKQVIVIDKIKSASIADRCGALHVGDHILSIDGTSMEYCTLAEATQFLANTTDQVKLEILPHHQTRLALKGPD

GRIP1_5, Q9Y3R0 = target: T3, GRIP1_5, Q9Y3R0
T3 sequence (Q9Y3R0 568-668, limits assumed, looked up): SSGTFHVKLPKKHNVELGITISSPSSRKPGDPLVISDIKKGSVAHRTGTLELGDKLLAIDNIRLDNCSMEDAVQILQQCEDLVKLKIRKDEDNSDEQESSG

GRIP2_4, Q9C0E4 = target: GRIP2_4, Q9C0E4
Sequence of GRIP2_4, Q9C0E4 (Q9C0E4 446-548): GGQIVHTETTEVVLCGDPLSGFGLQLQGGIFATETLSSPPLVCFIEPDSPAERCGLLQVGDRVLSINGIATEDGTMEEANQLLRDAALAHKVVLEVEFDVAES

GRIP2_7, Q9C0E4 = target: GRIP2_7, Q9C0E4
Sequence of GRIP2_7, Q9C0E4 (Q9C0E4 934-1023): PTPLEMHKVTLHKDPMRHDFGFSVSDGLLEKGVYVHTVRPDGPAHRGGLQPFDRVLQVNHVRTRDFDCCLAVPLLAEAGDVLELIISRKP

IL16_4, Q14005 = target: IL16_4, Q14005
Sequence of IL16_4, Q14005 (Q14005 1229-1329): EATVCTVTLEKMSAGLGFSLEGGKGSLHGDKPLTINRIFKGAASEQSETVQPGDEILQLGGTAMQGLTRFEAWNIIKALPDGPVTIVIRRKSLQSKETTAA

Inadl_1, Q8NI35 = target: Inadl_1, Q8NI35
Sequence of Inadl_1, Q8NI35 (Q8NI35 113-229): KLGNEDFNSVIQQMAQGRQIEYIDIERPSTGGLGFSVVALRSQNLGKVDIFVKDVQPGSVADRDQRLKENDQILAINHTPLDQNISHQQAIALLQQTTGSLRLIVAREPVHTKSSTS

Inadl_6, Q8NI35 = target: Inadl_6, Q8NI35
Sequence of Inadl_6, Q8NI35 (Q8NI35 1058-1167): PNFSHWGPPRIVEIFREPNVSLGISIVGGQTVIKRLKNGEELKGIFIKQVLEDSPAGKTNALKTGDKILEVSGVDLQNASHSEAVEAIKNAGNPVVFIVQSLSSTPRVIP

LNX1_1, Q8TBB1 = target: LNX1_1, Q8TBB1
Sequence of LNX1_1, Q8TBB1 (Q8TBB1 261-371): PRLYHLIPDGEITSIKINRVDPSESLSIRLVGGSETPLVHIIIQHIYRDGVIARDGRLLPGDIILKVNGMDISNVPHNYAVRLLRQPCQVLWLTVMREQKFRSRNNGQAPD

LNX1_2, Q8TBB1 = target: LNX1_2, Q8TBB1
Sequence of LNX1_2, Q8TBB1 (Q8TBB1 371-470): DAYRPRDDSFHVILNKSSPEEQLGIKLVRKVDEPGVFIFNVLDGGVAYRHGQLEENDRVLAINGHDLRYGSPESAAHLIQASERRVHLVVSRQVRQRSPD

LNX1_3, Q8TBB1 = target: LNX1_3, Q8TBB1
Sequence of LNX1_3, Q8TBB1 (Q8TBB1 500-596): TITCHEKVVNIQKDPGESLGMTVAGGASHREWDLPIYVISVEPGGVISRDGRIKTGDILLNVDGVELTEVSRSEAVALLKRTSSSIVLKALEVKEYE

MAGI1_1, Q96QZ7 = target: MAGI1_1, Q96QZ7
Sequence of MAGI1_1, Q96QZ7 (Q96QZ7 1-106): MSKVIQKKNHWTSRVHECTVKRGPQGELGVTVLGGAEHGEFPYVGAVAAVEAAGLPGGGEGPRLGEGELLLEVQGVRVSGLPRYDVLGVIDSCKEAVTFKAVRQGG

MAGI1_2, Q96QZ7 = target: MAGI1_2, Q96QZ7
Sequence of MAGI1_2, Q96QZ7 (Q96QZ7 456-580): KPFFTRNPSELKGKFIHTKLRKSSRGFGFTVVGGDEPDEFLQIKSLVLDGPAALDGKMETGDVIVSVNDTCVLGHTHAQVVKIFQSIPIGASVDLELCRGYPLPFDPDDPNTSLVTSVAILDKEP

MAGI2_5, Q86UL8 = target: MAGI2_5, Q86UL8
Sequence of MAGI2_5, Q86UL8 (Q86UL8 915-1017): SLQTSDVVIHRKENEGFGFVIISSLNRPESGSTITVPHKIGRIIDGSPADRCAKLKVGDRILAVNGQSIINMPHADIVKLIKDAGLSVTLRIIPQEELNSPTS

MAGI2_6, Q86UL8 = target: MAGI2_6, Q86UL8
Sequence of MAGI2_6, Q86UL8 (Q86UL8 1141-1229): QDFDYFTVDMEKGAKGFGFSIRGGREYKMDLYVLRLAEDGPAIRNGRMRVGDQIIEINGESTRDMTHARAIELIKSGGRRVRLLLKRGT

PDZRN3_1, Q9UPQ7 = target: T4, PDZRN3_1, Q9UPQ7
T4 sequence (Q9UPQ7 244-349, limits assumed, looked up): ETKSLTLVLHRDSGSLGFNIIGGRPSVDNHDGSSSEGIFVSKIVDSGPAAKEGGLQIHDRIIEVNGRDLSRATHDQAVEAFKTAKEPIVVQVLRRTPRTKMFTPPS

PDZRN4_1, Q6ZMN7 = target: PDZRN4_1, Q6ZMN7
Sequence of PDZRN4_1, Q6ZMN7 (Q6ZMN7 213-318): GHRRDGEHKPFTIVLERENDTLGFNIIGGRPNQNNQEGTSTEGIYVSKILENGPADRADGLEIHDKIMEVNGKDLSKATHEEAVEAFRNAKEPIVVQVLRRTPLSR

PICK1, Q9NRD5 = target: PICK1, Q9NRD5
Sequence of PICK1, Q9NRD5 (Q9NRD5 17-115): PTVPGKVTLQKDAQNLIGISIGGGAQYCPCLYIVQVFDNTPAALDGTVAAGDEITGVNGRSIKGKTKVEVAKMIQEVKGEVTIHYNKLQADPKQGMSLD

RADIL, Q96JH8 = target: T5, RADIL, Q96JH8
T5 sequence (Q96JH8 971-1071, limits assumed, looked up): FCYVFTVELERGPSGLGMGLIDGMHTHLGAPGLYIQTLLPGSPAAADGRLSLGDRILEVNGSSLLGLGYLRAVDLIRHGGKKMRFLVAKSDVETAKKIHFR

SCRIB_2, Q14160 = target: SCRIB_2, Q14160
Sequence of SCRIB_2, Q14160 (Q14160 857-960): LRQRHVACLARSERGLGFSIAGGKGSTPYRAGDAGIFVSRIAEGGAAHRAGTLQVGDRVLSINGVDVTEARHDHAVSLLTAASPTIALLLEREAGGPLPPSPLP

SCRIB_3, Q14160 = target: SCRIB_3, Q14160
Sequence of SCRIB_3, Q14160 (Q14160 999-1103): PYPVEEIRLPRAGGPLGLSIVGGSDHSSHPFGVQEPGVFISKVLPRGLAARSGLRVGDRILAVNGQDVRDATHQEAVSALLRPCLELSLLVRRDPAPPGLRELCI

SNTB1, Q13884 = target: T6, SNTB1, Q13884
T6 sequence (Q13884 107-205, limits assumed, looked up): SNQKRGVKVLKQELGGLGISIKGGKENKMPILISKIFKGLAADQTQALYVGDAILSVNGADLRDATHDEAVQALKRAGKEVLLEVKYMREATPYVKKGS

SNX27, Q96L92 = target: SNX27, Q96L92
TX1BP3, O14907 = target: T7, TX1BP3, O14907
T7 sequence (O14907 10-122, limits assumed, looked up): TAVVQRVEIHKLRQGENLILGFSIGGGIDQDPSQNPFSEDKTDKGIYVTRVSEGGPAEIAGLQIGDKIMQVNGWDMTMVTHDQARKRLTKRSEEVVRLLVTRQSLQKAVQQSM

Binder | pKd (APBA2_2, Q99767) | pKd (CASK, O14936) | pKd (DLG4_2, P78352) | pKd (DLG4_3, P78352) | pKd (FRMPD3, Q5JV73) | pKd (FRMPD4, Q14CM0) | pKd (GORASP1, Q9BQQ3) | pKd (GRIP1_3, Q9Y3R0) | pKd (GRIP1_5, Q9Y3R0) | pKd (GRIP2_4, Q9C0E4) | pKd (GRIP2_7, Q9C0E4) | pKd (IL16_4, Q14005) | pKd (Inadl_1, Q8NI35) | pKd (Inadl_6, Q8NI35) | pKd (LNX1_1, Q8TBB1) | pKd (LNX1_2, Q8TBB1) | pKd (LNX1_3, Q8TBB1) | pKd (MAGI1_1, Q96QZ7) | pKd (MAGI1_2, Q96QZ7) | pKd (MAGI2_5, Q86UL8) | also measured
TPPAAKKSRI [BAZ1A, Q9NRL2] | below the threshold | below the threshold | 3.85 | below the threshold | below the threshold | below the threshold | below the threshold | below the threshold | below the threshold | below the threshold | below the threshold | 3.69 | below the threshold | below the threshold | below the threshold | below the threshold | below the threshold | below the threshold | below the threshold | below the threshold | pKd (MAGI2_6, Q86UL8): below the threshold; pKd (PDZRN3_1, Q9UPQ7): below the threshold; pKd (PDZRN4_1, Q6ZMN7): below the threshold; pKd (PICK1, Q9NRD5): below the threshold; pKd (RADIL, Q96JH8): below the threshold; pKd (SCRIB_2, Q14160): below the threshold; pKd (SCRIB_3, Q14160): below the threshold; pKd (SNTB1, Q13884): below the threshold; pKd (SNX27, Q96L92): below the threshold; pKd (TX1BP3, O14907): below the threshold
QHKTQLQTLI [BPIFA2, Q96DR5] | below the threshold | below the threshold | 4.56 | 3.72 | below the threshold | below the threshold | 3.73 | below the threshold | below the threshold | below the threshold | below the threshold | below the threshold | below the threshold | 3.56 | 4.27 | below the threshold | below the threshold | 3.66 | 4.32 | 4.78 | pKd (MAGI2_6, Q86UL8): below the threshold; pKd (PDZRN3_1, Q9UPQ7): 3.65; pKd (PDZRN4_1, Q6ZMN7): below the threshold; pKd (PICK1, Q9NRD5): below the threshold; pKd (RADIL, Q96JH8): 3.91; pKd (SCRIB_2, Q14160): below the threshold; pKd (SCRIB_3, Q14160): 4.2; pKd (SNTB1, Q13884): 3.49; pKd (SNX27, Q96L92): 3.83; pKd (TX1BP3, O14907): 3.79
LSEFKAMDSI [CTNNA1, P35221] | below the threshold | below the threshold | below the threshold | below the threshold | below the threshold | below the threshold | below the threshold | below the threshold | below the threshold | below the threshold | below the threshold | below the threshold | below the threshold | below the threshold | below the threshold | below the threshold | below the threshold | below the threshold | below the threshold | below the threshold | pKd (MAGI2_6, Q86UL8): below the threshold; pKd (PDZRN3_1, Q9UPQ7): below the threshold; pKd (PDZRN4_1, Q6ZMN7): below the threshold; pKd (PICK1, Q9NRD5): 4.08; pKd (RADIL, Q96JH8): below the threshold; pKd (SCRIB_2, Q14160): below the threshold; pKd (SCRIB_3, Q14160): below the threshold; pKd (SNTB1, Q13884): below the threshold; pKd (SNX27, Q96L92): below the threshold; pKd (TX1BP3, O14907): 3.47

The next lines start with results.

pKd (APBA2_2, Q99767) | pKd (CASK, O14936) | pKd (DLG4_2, P78352) | pKd (DLG4_3, P78352) | pKd (FRMPD3, Q5JV73) | pKd (FRMPD4, Q14CM0) | pKd (GORASP1, Q9BQQ3) | pKd (GRIP1_3, Q9Y3R0) | pKd (GRIP1_5, Q9Y3R0) | pKd (GRIP2_4, Q9C0E4) | pKd (GRIP2_7, Q9C0E4) | pKd (IL16_4, Q14005) | pKd (Inadl_1, Q8NI35) | pKd (Inadl_6, Q8NI35) | pKd (LNX1_1, Q8TBB1) | pKd (LNX1_2, Q8TBB1) | pKd (LNX1_3, Q8TBB1) | pKd (MAGI1_1, Q96QZ7) | pKd (MAGI1_2, Q96QZ7) | pKd (MAGI2_5, Q86UL8) | Binder | also measured
below the threshold | 3.75 | 3.7 | 3.56 | 3.64 | 4.02 | 4.15 | below the threshold | below the threshold | below the threshold | 4.35 | below the threshold | 3.67 | below the threshold | below the threshold | 5.3 | 3.8 | 3.62 | below the threshold | below the threshold | VDSTVKVWTC [TRAF7, Q6Q0C0] | pKd (MAGI2_6, Q86UL8): below the threshold; pKd (PDZRN3_1, Q9UPQ7): below the threshold; pKd (PDZRN4_1, Q6ZMN7): below the threshold; pKd (PICK1, Q9NRD5): below the threshold; pKd (RADIL, Q96JH8): 4.2; pKd (SCRIB_2, Q14160): below the threshold; pKd (SCRIB_3, Q14160): below the threshold; pKd (SNTB1, Q13884): below the threshold; pKd (SNX27, Q96L92): below the threshold; pKd (TX1BP3, O14907): below the threshold
below the threshold | below the threshold | 4.43 | 3.53 | below the threshold | below the threshold | below the threshold | below the threshold | below the threshold | below the threshold | below the threshold | below the threshold | below the threshold | below the threshold | below the threshold | below the threshold | below the threshold | below the threshold | 4.19 | below the threshold | VNKSKLLTDV [KCNA1, Q09470] | pKd (MAGI2_6, Q86UL8): 3.88; pKd (PDZRN3_1, Q9UPQ7): below the threshold; pKd (PDZRN4_1, Q6ZMN7): below the threshold; pKd (PICK1, Q9NRD5): below the threshold; pKd (RADIL, Q96JH8): below the threshold; pKd (SCRIB_2, Q14160): below the threshold; pKd (SCRIB_3, Q14160): 3.55; pKd (SNTB1, Q13884): below the threshold; pKd (SNX27, Q96L92): below the threshold; pKd (TX1BP3, O14907): 4.22
